Molecular target: TALEN T3 pair (T3L/T3R) (artificial) (UniProt Q56830+Q56830)
Experiment: cell_activity
Settings: CD34+ cells

Row | Substance | activity (mock 0.03%, p<0.0001, off-target) | activity (mock 0.02%, p=0.0015, not significant in K562 or CD4+)
1 | CNOT10 off-target locus | 0.25 % indels | 
2 | FAM5C off-target locus |  | 0.05 % indels
